Test results: the Immune Epitope Database (IEDB)

Tests used:
HLA-A*02:01 [1] = experiment: IEDB peptide-MHC binding, purified MHC/competitive/fluorescence; ≥ and ≤ were set here for values at or beyond the usual limits of such assays
HLA-B*44:02 = experiment: IEDB peptide-MHC binding, purified MHC/competitive/radioactivity; filed as Kd, often an IC50 or EC50 that approximates it; ≥ and ≤ were set here for values at or beyond the usual limits of such assays
HLA-B*44:03 = experiment: as above
HLA-A*69:01 = experiment: IEDB peptide-MHC binding, purified MHC/direct/fluorescence; filed as Kd, often an IC50 or EC50 that approximates it; ≥ and ≤ were set here for values at or beyond the usual limits of such assays; details: source organism: Vaccinia virus Copenhagen
HLA-A*02:01 [2] = experiment: as above; details: source organism: Vaccinia virus Copenhagen
HLA-B*15:01 = experiment: as above; details: source organism: Vaccinia virus Copenhagen
HLA-B*58:01 = experiment: as above; details: source organism: Vaccinia virus Copenhagen
HLA-A*32:01 = experiment: IEDB peptide-MHC binding, purified MHC/competitive/radioactivity; filed as Kd, often an IC50 or EC50 that approximates it; ≥ and ≤ were set here for values at or beyond the usual limits of such assays
HLA-A*26:01 = experiment: as above
HLA-A*01:01 = experiment: as above
HLA-A*30:01 = experiment: as above
HLA-A*29:02 = experiment: as above
HLA-A*30:02 = experiment: as above
HLA-A*11:01 = experiment: IEDB peptide-MHC binding, purified MHC/direct/fluorescence; filed as Kd, often an IC50 or EC50 that approximates it; ≥ and ≤ were set here for values at or beyond the usual limits of such assays; details: source organism: SARS-CoV1
HLA-B*40:01 = experiment: IEDB peptide-MHC binding, purified MHC/competitive/radioactivity; filed as Kd, often an IC50 or EC50 that approximates it; ≥ and ≤ were set here for values at or beyond the usual limits of such assays
HLA-A*24:02 = experiment: as above
HLA-A*23:01 = experiment: as above
[3] = source organism: Zaire ebolavirus
[4] = source organism: Dengue virus 4 Philippines/H241/1956
[5] = source organism: Lymphocytic choriomeningitis virus (strain Armstrong)
[6] = source organism: Mammarenavirus guanaritoense
[7] = source organism: Dengue virus 1 Brazil/97-11/1997
[8] = source organism: Dengue virus 3 Martinique/1243/1999
[9] = source organism: Mammarenavirus brazilense
[10] = source organism: Dengue virus 2 Jamaica/1409/1983
[11] = source organism: Mammarenavirus lassaense
[12] = source organism: Vaccinia virus Copenhagen
[13] = source organism: Vaccinia virus WR
[14] = source organism: Mammarenavirus mopeiaense
[15] = source organism: Lassa virus Josiah

AATEAEKQL
IC50 (HLA-A*02:01 [1]; [3]): ≥ 436000 nM

AGISYKDREW
Kd (HLA-B*44:02; [4]): 843 nM | Kd (HLA-B*44:03; [4]): 4170 nM

AHGSTLAGV
IC50 (HLA-A*02:01 [1]; [3]): 59900 nM

CEPRSGIDF
Kd (HLA-B*44:03; [4]): 901 nM

DFLLQRWGG
IC50 (HLA-A*02:01 [1]; [3]): 16800 nM

DKIDQIIHD
IC50 (HLA-A*02:01 [1]; [3]): ≥ 387000 nM

DLGPAFTEL
Kd (HLA-A*69:01): 22.2 nM | Kd (HLA-A*02:01 [2]): 219 nM | Kd (HLA-B*15:01): ≥ 27700 nM | Kd (HLA-B*58:01): 8710 nM

DLMGVPYCNY
Kd (HLA-A*32:01; [5]): ≥ 53000 nM | Kd (HLA-A*26:01; [5]): 163 nM | Kd (HLA-A*01:01; [5]): 4550 nM | Kd (HLA-A*30:01; [5]): ≥ 68000 nM | Kd (HLA-A*29:02; [5]): 147 nM | Kd (HLA-A*30:02; [5]): 544 nM

DLMSMSDGEF
Kd (HLA-A*32:01; [6]): ≥ 22900 nM | Kd (HLA-A*26:01; [6]): 673 nM | Kd (HLA-A*01:01; [6]): ≥ 41200 nM | Kd (HLA-A*30:01; [6]): ≥ 70400 nM | Kd (HLA-A*29:02; [6]): 8870 nM | Kd (HLA-A*30:02; [6]): 1920 nM

DNSTHNTPV
IC50 (HLA-A*02:01 [1]; [3]): ≥ 456000 nM

DRYPANAIV
Kd (HLA-A*11:01): ≥ 25400 nM

EELPDTIETL
Kd (HLA-B*40:01; [7]): 166 nM

EEMFKKRNLT
Kd (HLA-B*44:03; [8]): 4530 nM

EERDDTLTI
Kd (HLA-B*44:03; [7]): 1430 nM

EFSRSILWDY
Kd (HLA-A*32:01; [6]): ≥ 21500 nM | Kd (HLA-A*26:01; [6]): 10300 nM | Kd (HLA-A*01:01; [6]): 748 nM | Kd (HLA-A*30:01; [6]): 1400 nM | Kd (HLA-A*29:02; [6]): 1130 nM | Kd (HLA-A*30:02; [6]): 210 nM

ELLGYCVSLF
Kd (HLA-A*32:01; [9]): 11000 nM | Kd (HLA-A*26:01; [9]): 315 nM | Kd (HLA-A*01:01; [9]): 3600 nM | Kd (HLA-A*30:01; [9]): 1880 nM | Kd (HLA-A*29:02; [9]): 9340 nM | Kd (HLA-A*30:02; [9]): 17400 nM

FEIMDLEKRH
Kd (HLA-B*40:01; [10]): 590 nM

FEKQLGQIML
Kd (HLA-B*40:01; [7]): 144 nM

FTSDVKAAVI
Kd (HLA-A*32:01; [5]): ≥ 69900 nM | Kd (HLA-A*26:01; [5]): 6430 nM | Kd (HLA-A*01:01; [5]): 431 nM | Kd (HLA-A*30:01; [5]): 4970 nM | Kd (HLA-A*29:02; [5]): ≥ 30600 nM | Kd (HLA-A*30:02; [5]): ≥ 63000 nM

FYSQESPQSY
Kd (HLA-A*32:01; [11]): 9400 nM | Kd (HLA-A*26:01; [11]): 380 nM | Kd (HLA-A*01:01; [11]): 758 nM | Kd (HLA-A*30:01; [11]): ≥ 49500 nM | Kd (HLA-A*29:02; [11]): 1.76 nM | Kd (HLA-A*30:02; [11]): 2930 nM

GEIGAIALDF
Kd (HLA-B*44:02; [8]): 13.6 nM | Kd (HLA-B*44:03; [8]): 8.92 nM

GEIGAVTLDF
Kd (HLA-B*40:01; [4]): 73 nM | Kd (HLA-B*44:02; [4]): 17 nM | Kd (HLA-B*44:03; [4]): 21.6 nM

GESSSNPTI
Kd (HLA-B*40:01; [4]): 16.8 nM | Kd (HLA-B*44:02; [4]): 75.2 nM

GTAKLRWFVE
Kd (HLA-A*32:01; [7]): ≥ 21100 nM

HTSGPSVMA
IC50 (HLA-A*02:01 [1]; source organism: Sudan ebolavirus): ≥ 203000 nM

IEETNMITL
Kd (HLA-B*40:01; [4]): 11.9 nM

IFINKLNGA
IC50 (HLA-A*02:01 [1]; [12]): 3280 nM

IHAHHQWMTT
Kd (HLA-A*32:01; [7]): ≥ 26800 nM

ILYYLSAKI
Kd (HLA-A*32:01; [12]): 8.87 nM

KELKCGSGI
Kd (HLA-B*40:01; [10]): 206 nM | Kd (HLA-B*44:02; [10]): 678 nM

KEVALLRTY
Kd (HLA-B*44:02; [4]): 2.63 nM | Kd (HLA-B*44:03; [4]): 63.6 nM

KMSYSSVMI
Kd (HLA-A*32:01; [13]): 14 nM

KTINYSFFL
Kd (HLA-A*32:01; [13]): ≤ 1 nM

LCLSGEGWPY
Kd (HLA-A*32:01; [14]): ≥ 53200 nM | Kd (HLA-A*24:02; [14]): ≥ 70300 nM | Kd (HLA-A*26:01; [14]): ≥ 69700 nM | Kd (HLA-A*23:01; [14]): ≥ 70000 nM | Kd (HLA-A*30:01; [14]): ≥ 70400 nM

LEENMEVEI
Kd (HLA-B*40:01; [4]): 82.6 nM

LEKAANVQW
Kd (HLA-B*44:02; [4]): 58.4 nM | Kd (HLA-B*44:03; [4]): 392 nM

LETLLLLTL
Kd (HLA-B*40:01; [10]): 5.76 nM | Kd (HLA-B*44:02; [10]): 609 nM | Kd (HLA-B*44:03; [10]): 1340 nM

LSNYIVSIF
Kd (HLA-A*32:01; [13]): 111 nM

LVINRLGAD
IC50 (HLA-A*02:01 [1]; [13]): ≥ 131000 nM

LYNFATCGLV
Kd (HLA-A*24:02; [15]): 11900 nM | Kd (HLA-A*26:01; [15]): ≥ 69700 nM | Kd (HLA-A*01:01; [15]): ≥ 31300 nM | Kd (HLA-A*23:01; [15]): 2350 nM | Kd (HLA-A*29:02; [15]): 620 nM | Kd (HLA-A*30:02; [15]): 575 nM
